Reference: patent publication US12558381B2, “Development of amnion-like tissue from human pluripotent stem cells” (THE REGENTS OF THE UNIVERSITY OF MICHIGAN, priority 2016, dated 2026)

System: hPSCs cultured in Gel-3D
Experiment: hPSC amniogenesis assay (Gel-3D culture), requirement of BMP-SMAD signalling
Assay type: cell-based, human
Text: Implantation-Like Niche Described herein is a biomimicry approach to engineer a biomaterial-based in vitro hPSC culture system for efficient generation of early human amniotic tissue. Specifically, a biomimetic implantation-like niche for cultured hPSCs was constructed by implementing two major biophysical factors seen in the in vivo amniogenic niche: a three-dimensional (3D) extracellular matrix (ECM) that is provided by the basement membrane surrounding the epiblast during implantation 1l; and a soft tissue bed provided by the uterine wall and trophoblast to support the developing amnion (FIG. 1a,b). mTeSR1 medium and basement membrane matrix (Geltrex) was used to render the culture permissive for pluripotency maintenance. In this culture system, H9 human embryonic stem cells (hESCs) were plated as single cells at 30,000 cells cm^2 onto a thick, soft gel bed of Geltrex (with thickness 100 μm, bulk Young's modulus 900 Pa, coated on a glass coverslip), in mTeSR1 medium supplemented with the ROCK inhibitor Y2763212 (FIG. 1b). At 24 h (day 1), medium containing Y27632 was replaced by fresh mTeSR1 supplemented with 4% (v/v) Geltrex to establish a 3D implantation-like niche (referred to henceforth as the ‘Gel-3D’ condition). To assess the effect of ECM dimensionality and matrix rigidity, respectively, several modifications of this Gel-3D condition were tested (FIG. 1b). First, the Geltrex supplement was excluded from the medium, with the gel bed retained (referred to henceforth as the ‘Gel-2D’ condition). Second, the soft gel bed was replaced by a 1% Geltrex-coated glass coverslip (referred to henceforth as the ‘Glass-3D’ condition). Finally, a standard 2D culture, using a 1% Geltrex-coated glass coverslip (referred to henceforth as the ‘Glass-2D’ condition), was examined as a control that maintains hPSC self-renewal. Culture medium was replenished daily. Analyses were performed at day 5 unless otherwise noted (FIG. 1b). […]

Row | Molecule | hPSC-amnion development (hPSCs cultured in Gel-3D, treatment on day 2 alone or on both days 2 and 3, FIG. 5d) | development of hPSC-amnion (hPSCs in Gel-3D, treatment with NOGGIN) | amniogenic differentiation (restatement in Example 2 of the BMP-SMAD requirement for amniogenesis)
1 | c1ccc2c(-c3cnn4cc(-c5ccc(N6CCNCC6)cc5)cnc34)ccnc2c1 [LDN193189, reference compound] | inhibited hPSC-amnion development |  | 
2 | NOGGIN: a protein that antagonizes BMP2/4/7 (protein, UniProt Q13253 28-232, looked up) Noggin: QHYLHIRPAPSDNLPLVDLIEHPDPIFDPKEKDLNETLLRSLLGGHYDPGFMATSPPEDRPGGGGGAAGGAEDLAELDQLLRQRPSGAMPSEIKGLEFSEGLAQGKKQRLSKKLRRKLQMWLWSQTFCPVLYAWNDLGSRFWPRYVKVGSCFSKRSCSVPEGMVCKPSKSVHLTVLRWRCQRRGGQRCGWIPIQYPIISECKCSC |  | inhibited | inhibit amniogenic differentiation
